Patent US20220187308A1 (published 2022)
Residue numbers refer to the chain shown, from its start. Blank lines part the entries; values can stand above or below the binder they belong to.

How the values were obtained:
GC-hIgA = target: T1, GC-hIgA (human); test: SPR (Biacore A100), antibody from culture supernatant on a protein A chip, GC-hIgA as analyte, 25 C, 1.2 mM CaCl2, pH 7.4 (step 22-3)
T1 construct: Recombinant human IgA used as the antigen in the Biacore A100 screen of step (22-3); also called recombinant human IgA GC-hIgA; human IgA
Method: The culture supernatant obtained by the above method was used to analyze GC-hIgA-binding ability using Biacore A100. Antibodies in the culture supernatant were immobilized onto Sensor chip CM5 (GE Healthcare Bio-Sciences Corp.) with protein A (Invitrogen Corp.) immobilized thereon in an appropriate amount by the amine coupling method. A buffer solution containing 20 mM ACES, 150 mM NaCl, 0.05% (w/v) Tween 20, and 1.2 mM CaCl₂) (pH 7.4) were used as a running buffer. GC-hIgA was also diluted with this buffer. Assay was all carried out at 25° C.

[1] = target: T2, biotinylated human IgA-Fc (human, UniProt P01876 123-333, biotin added at the C-terminal Avitag sequence by biotin ligase (BirA)); test: phage ELISA (Fab displayed on phage) on biotin-labeled IgA-Fc, 1.2 mM CaCl2 against 1 mM EDTA (step 22-4)
T2 construct: also called biotin-labeled hIgA-Fc
Method: Each well of the plate was washed with PBST to remove unbound antigens. […] The plate was left standing at 37° C. for 30 minutes for incubation. […] The plate was incubated for 1 hour. […] The chromogenic reaction of the solution in each well was terminated by the addition of sulfuric acid. Then, the developed color was assayed on the basis of absorbance at 450 nm.

[2] = target: T2, biotinylated human IgA-Fc; test: phage ELISA (Fab displayed on phage) on biotin-labeled IgA-Fc, 1.2 mM CaCl2 against 1 mM EDTA (step 22-6)
[3] = target: T3, biotin-labeled recombinant human glypican 3 (human, UniProt P51654 25-563, biotin-labeled using EZ-Link NHS-PEG4-Biotin); test: phage ELISA (Fab displayed on phage) on biotin-labeled GPC3, 1.2 mM CaCl2 against 1 mM EDTA
T3 construct: also called GPC3; biotin-labeled GPC3
Method: The plate was left standing at 37° C. for 30 minutes for incubation. […] The plate was incubated for 1 hour. […] The chromogenic reaction of the solution in each well was terminated by the addition of sulfuric acid. Then, the developed color was assayed on the basis of absorbance at 450 nm.

T2 sequence (P01876 other isoform, or with tags, fused parts or gaps limits assumed): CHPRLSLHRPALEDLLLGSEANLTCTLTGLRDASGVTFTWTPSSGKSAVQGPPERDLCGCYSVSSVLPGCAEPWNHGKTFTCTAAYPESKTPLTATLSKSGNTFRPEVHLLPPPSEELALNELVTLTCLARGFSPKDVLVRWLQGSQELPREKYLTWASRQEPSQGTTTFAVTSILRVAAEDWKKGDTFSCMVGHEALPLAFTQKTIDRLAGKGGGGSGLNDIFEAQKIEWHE
T3 sequence (P51654 other isoform, or with tags, fused parts or gaps limits assumed): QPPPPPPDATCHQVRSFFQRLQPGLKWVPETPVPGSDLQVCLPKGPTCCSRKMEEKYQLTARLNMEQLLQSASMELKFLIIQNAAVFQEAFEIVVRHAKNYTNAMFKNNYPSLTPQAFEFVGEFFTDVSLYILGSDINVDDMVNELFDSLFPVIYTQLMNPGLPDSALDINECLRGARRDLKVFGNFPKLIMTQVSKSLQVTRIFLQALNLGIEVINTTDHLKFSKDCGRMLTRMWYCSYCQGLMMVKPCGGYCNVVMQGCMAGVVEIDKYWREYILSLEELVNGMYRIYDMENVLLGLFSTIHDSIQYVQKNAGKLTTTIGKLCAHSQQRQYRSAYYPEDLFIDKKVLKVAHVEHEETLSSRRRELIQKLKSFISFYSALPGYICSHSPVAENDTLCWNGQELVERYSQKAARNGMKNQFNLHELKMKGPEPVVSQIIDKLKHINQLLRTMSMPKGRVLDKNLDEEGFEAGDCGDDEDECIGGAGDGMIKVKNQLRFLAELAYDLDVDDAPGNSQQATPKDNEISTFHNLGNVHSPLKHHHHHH
T1 sequence (light, as listed by the source): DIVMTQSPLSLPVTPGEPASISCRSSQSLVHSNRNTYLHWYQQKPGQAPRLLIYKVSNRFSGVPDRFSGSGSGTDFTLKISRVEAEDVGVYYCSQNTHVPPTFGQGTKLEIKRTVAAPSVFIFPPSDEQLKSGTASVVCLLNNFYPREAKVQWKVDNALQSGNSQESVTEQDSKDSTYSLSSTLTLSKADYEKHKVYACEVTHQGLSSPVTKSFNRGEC

B1: GA1-IgG1 (antibody, V domains shown)
VH: EVQLVQSGAEVKKPGSSVKVSCKASGGTFSSYAISWVRQAPGQGLEWMGGIIPIFGTANYAQKFQGRVTITADESTSTAYMELSSLRSEDTAVYYCARVAPGNWGSPYFDYWGQGTLVTVSS
VL: DIQMTQSPSSLSASVGDRVTITCRASQSIEDDLAWYQQKPGKAPKLLIYEASSLQSGVPSRFSGSGSGTDFTLTISSLQPEDFATYYCQQRDSSPLTFGQGTKVEIKR
notes: From the Ca library; obtained in step (22-3)
binding result (GC-hIgA): binds

B2: GA2-IgG1 (antibody, V domains shown)
VH: QVQLVQSGAEVKKPGSSVKVSCKASGGTFSSYAISWVRQAPGQGLEWMGGIIPIFGTANYAQKFQGRVTITADESTSTAYMELSSLRSEDTAVYYCARPRWETAISSDAFDIWGQGTMVTVSS
VL: B1 VL with E30S, A34N, S53N, R91H, D92S
notes: From the Ca library; obtained in step (22-4)
binding result [1]: binds

Other lines, results leading:

binding result [2]: binds
B3: GA3-IgG1 (antibody, V domains shown)
VH: QVQLVQSGAEVKKPGSSVKVSCKASGGTFSSYAISWVRQAPGQGLEWMGGIIPIFGTANYAQKFQGRVTITADESTSTAYMELSSLRSEDTAVYYCARGNGDYLEYFQHWGQGTLVTVSS
VL: B1 VL with E30S, S53N
notes: From the Ca library; obtained in step (22-6)

binding result [3]: binds
B4: CSCM-01_023 (antibody, human IgG1, kappa, V domains shown)
VH: QVQLVQSGAEVKKPGASVKVSCKASGYTFTSYGISWVRQAPGQGLEWMGWISAYNGNTNYAQKLQGRVTMTTDTSTSTAYMELRSLRSDDTAVYYCARDSPLLWFGEPFFDYWGQGTLVTVSS
VL: B1 VL with E50H, S53T, R91S, S94Y
notes: Purified IgG in the ELISA of step (24-5)
